Tests used:
[1] = target: PagRBc, PagR homologue (ArsR/SmtB family transcription factor) of emetic B. cereus F4810/72, encoded on pCER270 (Bacillus cereus F4810/72 (emetic reference strain)); experiment: two-hybrid
[2] = system: PagR1Bc (Bacillus cereus F4810/72 (AH187), plasmid pCER270); experiment: EMSA
[3] = system: PagRBa (PagR) (Bacillus anthracis Sterne, plasmid pXO1); experiment: EMSA
[4] = system: PagRBc (Bacillus cereus F4810/72 (AH187), plasmid pCER270); experiment: EMSA

Row | Substance | fold of self-interaction (β-galactosidase activity) against the self-interaction of PagR1Bc [1] | Kd [2] | Kd [3] | Kd [4]
1 | PagRBc, PagR homologue (ArsR/SmtB family transcription factor) of emetic B. cereus F4810/72, encoded on pCER270 (natural protein) | 1.75 fold | – | – | –
2 | cesP main promoter (cesPII), 523 bp | – | 150 nM | 25 nM | 25 nM

— PMC9570423
